In EP4480965A1, “TRANSFERRIN RECEPTOR-BINDING MOLECULES, CONJUGATES THEREOF AND THEIR USES TO PREVENT OR TREAT CNS DISEASES” (Vect-Horus, priority 2023, dated 2024):

Tested on: murine SOD1 mRNA
Test: CNS knock-down of SOD1 mRNA after systemic (SC or IV) administration (RT-qPCR)
Type: in vivo, C57Bl/6 mice
Conditions: SC QDx4 at 15 mg/kg (siRNA molar equivalent), one week after last dose
Method: VHH-siSOD1m-5'VP conjugates or heterodimeric VHH-hFc-siSOD1m-5'VP conjugates were generated and compared for their potential to trigger BBB-crossing and functional delivery in CNS tissues following systemic administration. Wild-type C57Bl/6 mice (4-8 per group) were administered with either four daily SC doses (QDx4) of unconjugated siSOD1m-5'VP or the C5-siSOD1m-5'VP conjugate at 15 mg/kg (siRNA molar equivalent), or three IV doses of the C5-hFc-siSOD1m-5'VP conjugate every two days (Q2Dx3) at 1.5 mg/kg (siRNA molar equivalent), compared to PBS injected mice. […] RNA samples were analyzed and dosed using a Fragment Analyzer RNA kit in a Fragment Analyzer system (Agilent). Relative RNA expression levels were quantified by RT-qPCR using the TaqMan™ Fast Universal PCR Master Mix (2X) no AmpErase™ LTNG kit (Applied Biosystems) and commercially available TaqMan™ probes for the target murine SOD1 and reference RpL13 and PUM1 genes (Applied Biosystems). Expression data were analyzed using the […]Cq method normalized to the expression of the reference RpL13 gene, for brain regions, or RpL13 and PUM1 genes for total brain, spinal cord, liver, kidney (multiplex qPCR), based on raw quantification cycle (Cq) values (Bustin et al.). The results are expressed as means ± standard error of the mean (SEM) and are presented as mRNA levels relative to the control animals injected with PBS. […]

B1: C5-siSOD1m-5'VP: TfR-binding VHH-siRNA conjugate wherein VHH is C5 (conjugate)
VHH: EVQLVESGGGVVQPGGSLKLSCVASGTDFSINFIRWYRQAPGKQREFVAGFTATGNTNYADSMKGRFTISRDNTKNAVYLQIDSLKPEDTAVYYCYMLDKWGQGTQVTVSSAAAEQKLISEEDLNGAAHHHHHHGS
- SOD1 mRNA KD in total brain and spinal cord: 30-40%
